From patent publication US8816053B2 (ZymoGenetics, Inc., priority 2004, dated 2014) come the findings set out here.

For experiment [1], the target named is T1, zcyto20 (Homo sapiens, UniProt Q8IZJ0).
T1 sequence (Q8IZJ0 26-200): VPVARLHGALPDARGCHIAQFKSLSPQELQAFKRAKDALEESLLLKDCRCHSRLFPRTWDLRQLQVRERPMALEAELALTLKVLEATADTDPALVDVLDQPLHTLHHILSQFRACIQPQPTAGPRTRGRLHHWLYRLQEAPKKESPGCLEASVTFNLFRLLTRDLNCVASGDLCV
Description: Inhibition of ligand-induced ISRE signaling by soluble receptors, 293 HEK cells overexpressing zcytor19, ligand zcyto20. It is filed as cell-based. The conditions noted are these: all three ligands together; soluble receptor 10 micrograms/ml. From the text: A signal transduction reporter assay can be used to show the inhibitor properties of zcytor19-Fc4 homodimeric and zcytor19-Fc/CRF2-4-Fc heterodimeric soluble receptors on zcyto20, zcyto21 and zcyto24 signaling. Human embryonal kidney (HEK) cells overexpressing the zcytor19 receptor are transfected with a reporter plasmid containing an interferon-stimulated response element (ISRE) driving transcription of a luciferase reporter gene. Luciferase activity following stimulation of transfected cells with ligands (including zcyto20 (SEQ ID NO:18), zcyto21 (SEQ ID NO:20), zcyto24 (SEQ ID NO:8)) reflects the interaction of the ligand with soluble receptor.
The results obtained are shown as the percent inhibition of ligand-induced signaling in the presence of soluble receptor relative to the signaling in the presence of PBS alone.

In experiment [2] the test system is mouse OAS, Pkr and Mx1. As to the kind of experiment: ISG gene induction in liver, spleen and blood of C57BL/6 mice injected with protein (real-time PCR). Format: in vivo. The note with it: i.p. or i.v., 10 μg-250 μg, 1 hr-48 hr. As for the experimental part: Mice were sacrificed at various time points (1 hr-48 hr). Spleens and livers were isolated from mice, and RNA was isolated. RNA was also isolated from the blood cells. The cells were pelleted and RNA isolated from pellets using RNAEasy®-kit (Qiagen). RNA was treated with DNase (Amicon) to rid RNA of any contaminating DNA. cDNA was generated using Perkin-Elmer RT mix (Perkin-Elmer). ISG gene induction was measured by real-time PCR using primers and probes specific for mouse OAS, Pkr and Mx1. To obtain quantitative data, HPRT real-time PCR was duplexed with ISG PCR. A standard curve was calculated using known amounts of IFN-stimulated mouse PBLs. All data are shown as expression relative to internal HPRT expression.
Results shown are fold expression relative to HPRT gene expression. […] The data shown is the average expression from 5 different animals/group.
Mice were injected with 100 μg of proteins i.v. Data shown is fold expression over HPRT expression from livers of mice. Similar data was obtained from blood and spleens of mice.

Experiment [3] concerns mouse OAS, Pkr and Mx1 in AML-12 cells. Description: ISG induction in the mouse liver cell line AML-12 (real-time PCR). The conditions noted are these: AML-12, 20 ng/ml, 48 hour time point. It is filed as cell-based. On the technique in general: Quantitative PCR measures a nucleic acid by following its amplification.
Experiment [4] has as its system Mouse B cells. Description: 3H-thymidine incorporation by mouse B cells. It is filed as cell-based. As for the experimental part:
Mouse B cells were isolated from 2 Balb/C spleens (7 months old) by depleting CD43+ cells using MACS magnetic beads. Purified B cells were cultured in vitro with LPS, anti-IgM or anti-CD40 monoclonal antibodies. Mouse IL-28 or mouse IFNα was added to the cultures and ^3H-thymidine was added at 48 hrs. and ^3H-thymidine incorporation was measured after 72 hrs. culture.

Experiment [5] deals with adenoviral vector, AdGFP. As to the kind of experiment: Adenoviral vector (AdGFP) liver pathology model in C57Bl/6 mice. The note with it: 50 μg i.p., 7 doses; H&E.
Experiment [6] relates to OAS activity. Description: OAS activity in serum and plasma of treated mice (OAS radioimmunoassay). It is filed as in vivo, mouse. The conditions noted are these: i.v., 10 μg-250 μg. As to the method:
Serum and plasma were isolated from mice at varying time points, and OAS activity was measured using the OAS radioimmunoassay (RIA) kit from Eiken Chemicals (Tokyo, Japan).

Take “HuCRF2-4-Fc: human CRF2-4-Fc homodimeric soluble receptor”: the “inhibition of zcyto20, zcyto21 and zcyto24-induced signaling” value in experiment [1] is given as “No significant effects”.

B1: IL-28A: human IL-28A cytokine polypeptide, previous designation zcyto20 (e.g. SEQ ID NO:18, CHO-derived) (protein, listed as Homo sapiens)
chain: MKLDMTGDCTPVLVLMAAVLTVTGAVPVARLHGALPDARGCHIAQFKSLSPQELQAFKRAKDALEESLLLKDCRCHSRLFPRTWDLRQLQVRERPMALEAELALTLKVLEATADTDPALVDVLDQPLHTLHHILSQFRACIQPQPTAGPRTRGRLHHWLYRLQEAPKKESPGCLEASVTFNLFRLLTRDLNCVASGDLCV
modifications: SIGNAL (1)...(25)
As to B1, the “ISG gene expression (OAS, Pkr, Mx1) in the livers, spleen and blood of mice” value in experiment [2] is listed as “did not induce”.

B2: Zcyto24: mouse IL-28 (zcyto24), SEQ ID NO:8 (protein, listed as Mus musculus)
chain: MKPETAGGHMLLLLLPLLLAAVLTRTQADPVPRATRLPVEAKDCHIAQFKSLSPKELQAFKKAKDAIEKRLLEKDLRCSSHLFPRAWDLKQLQVQERPKALQAEVALTLKVWENMTDSALATILGQPLHTLSHIHSQLQTCTQLQATAEPRSPSRRLSRWLHRLQEAQSKETPGCLEASVTSNLFRLLTRDLKCVANGDQCV
Turning to B2, in experiment [3], the “Mx1 (expression relative to HPRT)” value came out at 0.08, the “OAS (expression relative to HPRT)” value was determined as 0.04 and the “PkR (expression relative to HPRT)” value was determined as 0.02. Besides, the 3H-thymidine incorporation result in experiment [4] (B cells stimulated with LPS or anti-IgM, IFNα 10 ng/ml, mouse IL-28 any concentration including 1000 ng/ml, 72 hrs) is “did not inhibit”. For the same molecule, the 3H thymidine incorporation result in experiment [4] (B cells stimulated with anti-CD40 MAb) is given as “increased”. Further, the “liver and inflammation scores (liver histology) versus the PBS-treated group” value in experiment [5] is reported as “lower”.

B3: Muzcytor19-Ig: murine zcytor19-Ig homodimeric soluble receptor (protein)
chain: RPRLAPPRNVTLFSQNFTVYLTWLPGLGSPPNVTYFVTYQSYIKTGWRPVEHCAGIKALVCPLMCLKKLNLYSKFKGRVQAASAHGRSPRVESRYLEYLFDVELAPPTLVLTQMEKILRVNATYQLPPCMPSLELKYQVEFWKEGLGSKTLFPDTPYGQPVQIPLQQGASRRHCLSARTVYTLIDIKYSQFSEPSCIFLEAPGDKRA
modifications: left off: a dimerising Fc or GST
notes: murine zcytor19-Ig homodimeric soluble receptor
Regarding B3, in experiment [1], the “inhibition of zcyto20, zcyto21 and zcyto24-induced signaling” value is “No significant effects”.

B4: IL-29: human IL-29 cytokine polypeptide, previous designation zcyto21 (e.g. SEQ ID NO:20, CHO-derived) (protein, listed as Homo sapiens)
chain: MAAAWTVVLVTLVLGLAVAGPVPTSKPTTTGKGCHIGRFKSLSPQELASFKKARDALEESLKLKNWSCSSPVFPGNWDLRLLQVRERPVALEAELALTLKVLEAAAGPALEDVLDQPLHTLHHILSQLQACIQPQPTAGPRPRGRLHHWLHRLQEAPKKESAGCLEASVTFNLFRLLTRDLKYVADGNLCLRTSTHPEST
modifications: SIGNAL (1)...(19)
Turning to B4, in experiment [5], the “liver and inflammation scores (liver histology) versus the PBS-treated group” value was “lower”. In addition, in experiment [6], the “OAS activity in the serum and plasma of mice” value was “induced”. For the same molecule, the “ISG gene expression (OAS, Pkr, Mx1) in the livers, spleen and blood of mice” value in experiment [2] was “induced”.
